Laboratory results as given in article PMC8277577 (Nature, 2021).
Numbering of substitutions follows the chain as printed.

B1: C951 (antibody, V domains shown)
VH: QVQLQESGPRLVKPSGTLSLTCAVSGGSISTTNWWSWVRQPPGKGLEWIGEIHHSGNTNYNPSLKSRVTISVDRSKNQFSLKLSSVTAADTAVYFCARDGGRPGDPFDIWGQGTMVTVSS
VL: QSALTQPASVSGSPGQSITISCTGTSSDVGGYNYVSWYQQHPGKAPNLMIYDVSDRPSGVSNRFSGSKSGNTASLTISGLQAEDEADYYCNSFTSNSTRVFGTGTKVTV
notes: source: recombinant, purified
B2: C881 (antibody, V domains shown)
VH: EVQLVESGGGLIQPGGSLRLSCAVSGVAVSTNYMSWVRQAPGQGLEWVSTIYSGDTTYYSDSVKGRFTISRDNSKNTFYLQMNSLRVPDTAVYYCARLGGVFNGFNGSFDYWGQGTLVTVS
VL: QSALTQPASVSGSPGQSITISCIGTSSDFENYNLVSWYQQHPGKAPKVMIYEDTKRPSGVSNRFSGSKSANTASLTISGLQAEDEAEYYCCSYAGASTWVFGGGTRVTVV
notes: source: recombinant, purified
B3: C929 (antibody, V domains shown)
VH: EVQLVESGGGLIQPGGSLRLSCAASGFTVSSNYMTWVRQAPGKGLEWVSVIYSGGTTYYADSVKGRFTISRDNSKNTLYLQMNSLRAEDTAVYYCARDLVVWGMDVWGQGTTVTVSS
VL: DIQLTQSPSFLSASVGDRVTITCRASQGISSYLAWYQQKPGKAPKLLIYAASTLQSGVPSRFSGSGSGTEFTLTISSLQPEDFATYYCQLLNSYPYTFGQGTKLEIK
notes: source: recombinant, purified
B4: C930 (antibody, V domains shown)
VH: B3 VH with I12F, S21A, F27I, T35S, A40P, S53A, T56S, Y58F, F67L, M82I
VL: B3 VL with L90Q, S93T
notes: source: recombinant, purified
B5: C889 (antibody, V domains shown)
VH: EVQLVESGGGLVQPGGSLRLSCAVSGFTVSSNYMTWVRQAPGKGLEWVSLIYSGTSAFYADSVKGRFTISRDNSKNTLYLQMSSLRVNDTAIYYCARDLRKDDGYSYGAFDYWGQGTLVTVSS
VL: QSALTQPASVSGSPGQSITISCSGTSSDVGAHNYVSWYQQYPGKAPKLMIFDVTDRPSGVSNRFSGSKSGNTASLTISGLQAEDEADYYCTSYTTNRSWVFGGGTKVTVL
notes: source: recombinant, purified
B6: C010 (antibody, V domains shown)
VH: EVQLVESGGGVVQPGRSLRLSCAASGFTFSSYAMHWVRQAPAKGLEWVAVILYDGSGKYYADSVKGRFTISRDNSKNTLYLQMNSLRAEDTAVYYCARDGIVDTALVTWFDYWGQGTLVTVSS
VL: not shown
notes: source: recombinant, purified
B7: C840 (antibody, V domains shown)
VH: QVQLVESGGGVVQPGRSLRLSCEASGFTFTAYAMHWLRQAPGKGLEWVAVILNDGSNKLYADSVKGRFTVSRDNSKNMLYLQVNSLRVDDTAVYYCARDGSVDTLMVTWFDYWGQGTLVTVSS
VL: DIQMTQSPSSLSASVGDRVTITCRASQSVNNYLNWYQQKPGQAPKLLIYAASSLQSGVPLRFSGSGSGTDFALTITSLHTEDFATYYCQQSYNTPPWTFGPGTKVEIK
notes: source: recombinant, purified
B8: C953 (antibody, V domains shown)
VH: QVQLVQSGAEVKKPGSSVKVSCKASGGTFSSYAISWVRQAPGQGLEWMGRIIPILGIANYAQKFQGRVTITADKSTSTAYMELSSLRSEDTAVYYCARDSEYSSSWYSRGYYGMDVWGQGTTVTVSS
VL: not shown
notes: source: recombinant, purified
B9: C032 (antibody, V domains shown)
VH: EVQLVQSGAEVKKPGESLKISCKGSGYSFTSYWIGWVRQMPGKGLEWMGIIYPGDSDTRYSPSFQGQVTISADKSISTAYLQWSSLKASDTAMYYCARGVAVDWYFDLWGRGTLVTVSS
VL: QSVLTQPPSVSGAPGQRVTISCTGSSSNIGAGYDVHWYQQLPGTAPKLLIYGNSNRPSGVPDRFSGSKSGTSASLAITGLQAEDEADYYCQSYDSSLSALYVFGTGTKVTVL
notes: source: recombinant, purified
B10: C954 (antibody, V domains shown)
VH: QVQLVQSGAEVKKPGSSVKVSCKASGDTFTNYAFSWMRQAPGQGLEWMGRIIPILGIVKYSQKFQDRVRISADKSTSTAYMDLSSLRSEDTAMYYCARDSEFSTSWFSRGYHGMDVWGQGTTVTVSS
VL: DIVMTQSPLSLPVTPGEPASISCRSSQSLLHGDGYNYLDWYLQKPGQSPHLLIYLGSNRTSGVSDRFSGSGSGTDFTLKISRVEAEDVGVYYCMQALQTPPTFGGGTKVEIK
notes: source: recombinant, purified
B11: C952 (antibody, V domains shown)
VH: EVQLVQSGAEVKKPGESLTISCKDSGNSFTIYWIGWVRQMPGKGLEWMGMIYPGDSGTRYSPSFEGQVTISADESINTAYLQWRSLKASDTAMYYCVRGIAVDWYFDLWGRGTLVTVSS
VL: QSVLTQPPSVSGAPGQRVTISCTGSSSNIGAGFDVHWYQQLPGTAPKLLIYGNNNRPSGVPDRFSGSKSATSASLAITGLQAEDEADYYCQSSDSSLSGLYVFGTGTNVIV
notes: source: recombinant, purified
B12: C581 (antibody, V domains shown)
VH: EVQLVQSGAEVKKPGESLKISCKGSGYRFTSYWIAWVRQMPGKGLEWMGIIYPGDSDTRYSPSFQGQVTISADQSISTAYLQWSSLKASDTAMYYCARGGPPGGVKLELTDYWGQGALVTVSS
VL: not shown
notes: source: recombinant, purified
B13: C908 (antibody, V domains shown)
VH: B12 VH with G24A, R28S, S31I, A35G, D55E, D57E, Q74K, S84R, A117T
VL: not shown
notes: source: recombinant, purified
B14: C960 (antibody, V domains shown)
VH: QVQLVESGGGVVQPGRSLTLSCTASGFTFNRFAMFWVRQAPGKGLEWVAVISFDGSYEHYAESVKGRFAIFRDNPKNTLYLQMNSLRAEDTAVYYCAKSPINYCANGVCYPDSWGQGTLVTVSS
VL: NFMLTQPHSVSESPGKTVTISCTGSSGSIANNYVQWYQQRPGSAPTTVIFEDTQRPSGVPDRFSGSIDSSSNSASLNISGLKPEDEADYYCQSFDVNSRWVFGGGTKLTVL
notes: source: recombinant, purified
B15: C1003 (antibody, V domains shown)
VH: QVQLVESGGGVVQPGRSLRLSCAASGFAFSSYGMNWVRQAPGKGLEWVTTVSSDGNVNYYIDSVKGRFTISRDNSKNTLYLQMNSLRGDDTAVYYCAKGPRFGWSYRGGSGFDIWGQGTMVTVSS
VL: DIQMTQSPSSLSASVGDRVTITCQASQDISNYLNWYQQKPGKAPKLLIYDASNLETGVPSRFSGSGSGTDFTFTITSLQPEDIATYYCQQYDNLPITFGQGTRLEIK
notes: source: recombinant, purified
B16: C934 (antibody, V domains shown)
VH: QVQLVQSGAEVKKPGASVKVSCKASGYTFTDYYIHWVRQAPGQGLEWMGWINPNSGGTNYAQKFQGRVTMTRDTSISTAYMDLSRLRSDDTAVYYCARDVIITMGRGVVFRMDVWGQGTTVTVSS
VL: not shown
notes: source: recombinant, purified
B17: C517 (antibody, V domains shown)
VH: EVQLVESGGGLVQPGGSLRLSCAASEFIVSRNYMSWVRQAPGKGLEWVSLIYSGGSTYYADSVKGRFTISRDNSKNTLYLQMNSLRAEDTAMYYCARDIAGRLDYWGQGTLVTVSS
VL: DIQMTQSPSSLSASVGDRVTITCQASQDISKYLNWYQQKPGKAPKLLIYDASNLETGVPSRFSGSGSGTDFTFTISSLQPEDFATYYCQHYDSLSRLTFGGGTKVEIK
notes: source: recombinant, purified
B18: C1002 (antibody, V domains shown)
VH: B17 VH with R31S, S35T, L50I, I51M, S53P, Y58F, M82I, S84R, M92V
VL: B17 VL with S30N, K31N, T72S, F83I, H90Q, S93N
notes: source: recombinant, purified
B19: C937 (antibody, V domains shown)
VH: EVQLVESGGGLIQPGGSLRLSCAASELTVSSNYMSWVRQAPGKGLEWVSVIYPGGSTFYADSVKGRFTISRDNSKNTLYLQMNSLRAEDTAVYYCARDLGTGLFDYWGQGTLVTVSS
VL: DIQLTQSPSFLSASVGDRVTITCRASQGISSYLAWYQQKPGKAPKLLIYAASTLQSGVPSRFSGSGSGTEFTLTISSLQPEDFATYFCQLLNSNPPGTFGPGTKVDIK
notes: source: recombinant, purified
B20: C888 (antibody, V domains shown)
VH: EVQLVESGGGLVQPGGSLRLSCAASGFTVSSNYMSWVRQAPGKGLEWVSVIYSGGSAYYADSVKGRFTISRDNSKNTLYLQMNSLRAEDTAVYYCARDLRDQDGYSYGAFDYWGQGTLVTVSS
VL: QSALTQPASVSGSPGQSITISCTGTSSDVGGYNYVSWYQQHPGKAPKLMIYDVSNRPSGVSNRFSGSKSGNTASLTISGLQAEDEADYYCSSYTSSSSWVFGGGTKLTVL
notes: source: recombinant, purified
B21: C1009 (antibody, V domains shown)
VH: EVQLVESGGGLLQPGGSLRLSCAASGFSVSSNYMTWVRQAPGKGLEWVAAIYSGDSTYYVDSVKGRFIISRDNSKNTVYLHLSSLRAEDTAVYYCARLVGYDFRSGSDGGYFDYWGHGTLVTVSS
VL: B20 VL with V29I, G31N, Y34L, N55K, A86T, S91C, T94A, S95G, S98T
notes: source: recombinant, purified
B22: C153 (antibody, V domains shown)
VH: EVQLVESGGGLIQPGGSLRLSCAASGFTVSSNYMSWVRQAPGKGLEWVSVIYSGYSTYYVDSVKGRFTISRDNSKNTLYLQMNSLRAEDTAVYYCARVGGAHSGYDGSFDYWGQGTLVTVSS
VL: B20 VL with G31S, Y34L, D52E, V53G, N55K, S91C, T94A, S95G, S98T
notes: source: recombinant, purified
B23: C1008 (antibody, V domains shown)
VH: EVQLVESGGGLIQPGGSLRLSCAASGFTVSSNYMSWVRQAPGKGLEWVSVIYSGGSTYYADSVKGRFTISRDNSKNTLYLQMNSLRAEDTAVYYCARVVGYDFWSGYDGGYFDYWGQGTLVTVSS
VL: B20 VL with G31S, Y34L, D52E, N55K, S91C, T94A, S95G, S98T
notes: source: recombinant, purified
B24: C871 (antibody, V domains shown)
VH: EVQLVESGGGLIQTGGSLKLSCAASGFIVTNNYMSWVRQAPGKGLEWVSVIYSGGTTYYADSVKGRFTISRDISKNTLYLQMNSLKAEDTAVYYCAREGDVEGISDSWSGYSRDRYYFDHWGQGTLVTVSS
VL: QSALTQPASVSGSPGQSITISCTGTSSDVGGYNYVSWYQQHPGKAPKLMIYDVSNRPPTISNRFSGSKSGNTASLIISGLQPEDEADYYCSSFTSNNTRVFGTGTKVTVL
notes: source: recombinant, purified
B25: C108 (antibody, V domains shown)
VH: B1 VH with R10G, T31S, H53Y, S55T, N57S, R74K, F95Y, A97V, P106A
VL: B20 VL with S91N, S98T, W99R, G103T, L107V
notes: source: recombinant, purified

Biological target: SARS-CoV-2 receptor binding domain (RBD) (SARS-CoV-2, GenBank MN985325.1 …, UniProt P0DTC2)
Test: BLI
Conditions: both partners purified

For B1, which Kd is on record?
The Kd was 3.34 nM.

With B2 as the binder, how does the Kd read?
The Kd was 1.95 nM.

For B3, which Kd is on record?
Its Kd is 0.791 nM.

For B4, which Kd is on record?
The Kd was 0.318 nM.

Which Kd does the source give for B5 here?
Its Kd is 2.46 nM.

Which Kd does the source give for B6 here?
Its Kd is 35.1 nM.

B7 was tested. Which Kd did it give?
The Kd was 1.87 nM.

B8 was tested. Which Kd did it give?
The Kd was 620 nM.

For B9, which Kd is on record?
Its Kd is 32.1 nM.

B10 was tested. Which Kd did it give?
Its Kd is 1.47 nM.

Which Kd does the source give for B11 here?
Its Kd is 0.587 nM.

For B12, which Kd is on record?
The Kd was 0.0725 nM.

B13 was tested. Which Kd did it give?
The Kd was 0.00384 nM.

For B14, which Kd is on record?
The Kd was 1.5 nM.

With B15 as the binder, how does the Kd read?
The Kd was 11.5 nM.

For B16, which Kd is on record?
Its Kd is 10.8 nM.

For B17, which Kd is on record?
Its Kd is 28.8 nM.

With B18 as the binder, how does the Kd read?
Its Kd is 0.00513 nM.

With B19 as the binder, how does the Kd read?
The Kd was 4.4 nM.

How did the Kd turn out when B20 was run?
The Kd was 7240 nM.

With B21 as the binder, how does the Kd read?
Its Kd is 4.79 nM.

Which Kd does the source give for B22 here?
Its Kd is 1380 nM.

For B23, which Kd is on record?
The Kd was 208 nM.

Which Kd does the source give for B24 here?
Its Kd is 2.76 nM.

How did the Kd turn out when B25 was run?
Its Kd is 21.5 nM.
